Experimental data published in US20180030151A1 (MOGAM INSTITUTE FOR BIOMEDICAL RESEARCH, published 2018).
Read-outs that look alike come from different tables or passages of the source.

Assays:
[1] = molecular target: TFPI in FVIII-deficient plasma (sample dilution); assay: cell-based or functional assay
[2] = molecular target: T1, recombinant human TFPI (tissue factor pathway inhibitor) (human, UniProt P10646 29-304); assay: cell-based or functional assay
[3] = molecular target: T1, recombinant human TFPI (tissue factor …); assay: cell-based or functional assay; remark: listed apart in the source
[4] = molecular target: T1, recombinant human TFPI (tissue factor …); assay: cell-based or functional assay; remark: listed apart in the source
[5] = molecular target: T1, recombinant human TFPI (tissue factor …); assay: SPR, Biacore T-200; TFPI immobilised on CM5 chip, IgG as analyte
Experimental: 10 mM of glycine-HCl (pH 1.5) was run at a flow rate of 30 μL/min for 30 seconds, thereby inducing the dissociation of the antibody associated with the TFPI. The affinity in terms of kinetic rate constants (Kₒₙ and Koff) and equilibrium dissociation constant

[6] = molecular target: T1, recombinant human TFPI (tissue factor …); assay: cell-based or functional assay; remark: listed apart in the source
[7] = molecular target: T1, recombinant human TFPI (tissue factor …); assay: cell-based or functional assay; remark: listed apart in the source
[8] = molecular target: T1, recombinant human TFPI (tissue factor …); assay: cell-based or functional assay; remark: listed apart in the source
[9] = molecular target: T1, recombinant human TFPI (tissue factor …); assay: cell-based or functional assay; remark: listed apart in the source
[10] = molecular target: T1, recombinant human TFPI (tissue factor …); assay: cell-based or functional assay; remark: listed apart in the source
[11] = molecular target: T1, recombinant human TFPI (tissue factor …); assay: cell-based or functional assay; remark: listed apart in the source
[12] = molecular target: T1, recombinant human TFPI (tissue factor …); assay: cell-based or functional assay; remark: listed apart in the source
[13] = molecular target: T1, recombinant human TFPI (tissue factor …); assay: cell-based or functional assay; remark: listed apart in the source
[14] = molecular target: T1, recombinant human TFPI (tissue factor …); assay: cell-based or functional assay; remark: listed apart in the source

B1: clone 308 (antibody, V domains shown)
VH: EVQLVESGGGLVKPGGSLRLSCAASGFTFSSYAMNWVRQAPGKGLEWVSTITTGGSYTYYADSVKGRFTISRDNAKNSLYLQMNSLRAEDTAVYYCARQDGNFLMDYWGQGTLVTVSS
VL: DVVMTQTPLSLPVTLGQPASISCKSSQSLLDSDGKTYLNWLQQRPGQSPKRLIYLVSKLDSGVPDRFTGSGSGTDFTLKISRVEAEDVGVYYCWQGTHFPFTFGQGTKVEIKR
notes: Humanized form of T417, IgG
[1]
  ETP vs negative control, thrombin generation assay, Ab 2.5 nM: 122%
  thrombin peak vs blank, thrombin generation assay, Ab 2.5 nM: 162%
[2]
  TFPI inhibitory activity, FXa activity assay, Ab 10 nM: ~58.2%
  TFPI inhibitory activity, FXa activity assay, Ab 40 nM: ~85.1%
  TFPI inhibitory activity, TF/FVIIa/FXa complex assay, Ab 50 nM: ~54.2%
  TFPI inhibitory activity, TF/FVIIa/FXa complex assay, Ab 100 nM: ~94.3%
[3]
  TF/FVIIa/FXa assay % of 0 nM TFPI, 12.5 nM Ab, 50 nM TFPI: 17.9%
  TF/FVIIa/FXa assay % of 0 nM TFPI, 50 nM Ab, 50 nM TFPI: 66.5%
  TF/FVIIa/FXa assay % of 0 nM TFPI, 100 nM Ab, 50 nM TFPI: 104%
  TF/FVIIa/FXa assay OD, 12.5 nM Ab, 50 nM TFPI: 0.143 OD
  TF/FVIIa/FXa assay OD, 25 nM Ab, 50 nM TFPI: 0.248 OD
  TF/FVIIa/FXa assay OD, 50 nM Ab, 50 nM TFPI: 0.533 OD
  TF/FVIIa/FXa assay OD, 100 nM Ab, 50 nM TFPI: 0.833 OD
[4]
  FXa assay % of FXa alone, 0.625 nM Ab, 10 nM TFPI: 5%
  FXa assay % of FXa alone, 2.5 nM Ab, 10 nM TFPI: 8%
  FXa assay OD, 0.625 nM Ab, 10 nM TFPI: 0.049 OD
  FXa assay OD, 2.5 nM Ab, 10 nM TFPI: 0.078 OD
  FXa assay OD, 10 nM Ab, 10 nM TFPI: 0.519 OD
  FXa assay OD, 40 nM Ab, 10 nM TFPI: 0.718 OD
[5]
  Kd: 0.05 nM

B2: clone 308-4 (antibody, V domains shown)
VH: EVQLVESGGGLVKPGGSLRLSCAASGFTFSSYAMNWVRQAPGKGLEWVSTITTGGSYTYYADSVEGRFTISRDNAKNSLYLQMNSLRAEDTAVYYCARQDGNFLMDYWGQGTLVTVSS
VL: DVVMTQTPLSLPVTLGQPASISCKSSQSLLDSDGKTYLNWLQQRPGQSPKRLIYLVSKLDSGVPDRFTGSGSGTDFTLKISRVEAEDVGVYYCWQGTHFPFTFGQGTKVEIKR
[6]
  A405, TF/FVIIa/FX complex assay, Ab 1.56 nM: 0.135
  A405, TF/FVIIa/FX complex assay, Ab 3.13 nM: 0.155
  A405, TF/FVIIa/FX complex assay, Ab 6.25 nM: 0.177
  A405, TF/FVIIa/FX complex assay, Ab 12.5 nM: 0.223
  A405, TF/FVIIa/FX complex assay, Ab 25 nM: 0.664
  A405, TF/FVIIa/FX complex assay, Ab 50 nM: 0.926
  A405, TF/FVIIa/FX complex assay, Ab 100 nM: 0.938
[7]
  FXa assay % of FXa alone, 2.5 nM Ab, 10 nM TFPI: 9.9%
  FXa assay % of FXa alone, 5 nM Ab, 10 nM TFPI: 56.8%
  FXa assay % of FXa alone, 10 nM Ab, 10 nM TFPI: 76.8%
  FXa assay % of FXa alone, 20 nM Ab, 10 nM TFPI: 77.3%
  FXa assay OD, 2.5 nM Ab, 10 nM TFPI: 0.0765
  FXa assay OD, 5 nM Ab, 10 nM TFPI: 0.438
  FXa assay OD, 10 nM Ab, 10 nM TFPI: 0.591
[2]
  TFPI inhibitory activity, FXa activity assay, Ab 10 nM: 78%
  TFPI inhibitory activity, FXa activity assay, Ab 40 nM: 82%
  TFPI inhibitory activity, TF/FVIIa/FXa complex assay, Ab 50 nM: 100%
  TFPI inhibitory activity, TF/FVIIa/FXa complex assay, Ab 100 nM: 100%
[8]
  FXa assay % of FXa alone, 2.5 nM Ab, 10 nM TFPI: 8.3%
  FXa assay % of FXa alone, 5 nM Ab, 10 nM TFPI: 59.8%
  FXa assay % of FXa alone, 10 nM Ab, 10 nM TFPI: 73.9%
  FXa assay % of FXa alone, 20 nM Ab, 10 nM TFPI: 74.1%
  FXa assay OD, 2.5 nM Ab, 10 nM TFPI: 0.06
  FXa assay OD, 5 nM Ab, 10 nM TFPI: 0.43
  FXa assay OD, 10 nM Ab, 10 nM TFPI: 0.531
[9]
  % of Normalized, TF/FVIIa/FX complex assay, Ab 1.56 nM: 16.1%
  % of Normalized, TF/FVIIa/FX complex assay, Ab 3.13 nM: 17.2%
  % of Normalized, TF/FVIIa/FX complex assay, Ab 6.25 nM: 19.4%
  % of Normalized, TF/FVIIa/FX complex assay, Ab 12.5 nM: 23.2%
  % of Normalized, TF/FVIIa/FX complex assay, Ab 25 nM: 75%
  % of Normalized, TF/FVIIa/FX complex assay, Ab 50 nM: 95.2%
  % of Normalized, TF/FVIIa/FX complex assay, Ab 100 nM: 97%
[10]
  % of Normalized, TF/FVIIa/FX complex assay, Ab 1.56 nM: 14.7%
  % of Normalized, TF/FVIIa/FX complex assay, Ab 3.13 nM: 16.8%
  % of Normalized, TF/FVIIa/FX complex assay, Ab 6.25 nM: 19.2%
  % of Normalized, TF/FVIIa/FX complex assay, Ab 12.5 nM: 24.2%
  % of Normalized, TF/FVIIa/FX complex assay, Ab 25 nM: 72.3%
  % of Normalized, TF/FVIIa/FX complex assay, Ab 50 nM: 101%
  % of Normalized, TF/FVIIa/FX complex assay, Ab 100 nM: 102%
[11]
  A405, TF/FVIIa/FX complex assay, Ab 1.56 nM: 0.154
  A405, TF/FVIIa/FX complex assay, Ab 3.13 nM: 0.164
  A405, TF/FVIIa/FX complex assay, Ab 6.25 nM: 0.185
  A405, TF/FVIIa/FX complex assay, Ab 12.5 nM: 0.222
  A405, TF/FVIIa/FX complex assay, Ab 25 nM: 0.716
  A405, TF/FVIIa/FX complex assay, Ab 50 nM: 0.909
  A405, TF/FVIIa/FX complex assay, Ab 100 nM: 0.926
[3]
  TF/FVIIa/FXa assay % of 0 nM TFPI, 12.5 nM Ab, 50 nM TFPI: 20.7%
  TF/FVIIa/FXa assay % of 0 nM TFPI, 50 nM Ab, 50 nM TFPI: 111%
  TF/FVIIa/FXa assay % of 0 nM TFPI, 100 nM Ab, 50 nM TFPI: 111%
  TF/FVIIa/FXa assay OD, 12.5 nM Ab, 50 nM TFPI: 0.166 OD
  TF/FVIIa/FXa assay OD, 25 nM Ab, 50 nM TFPI: 0.548 OD
  TF/FVIIa/FXa assay OD, 50 nM Ab, 50 nM TFPI: 0.886 OD
  TF/FVIIa/FXa assay OD, 100 nM Ab, 50 nM TFPI: 0.89 OD
[4]
  FXa assay % of FXa alone, 0.625 nM Ab, 10 nM TFPI: 4%
  FXa assay % of FXa alone, 2.5 nM Ab, 10 nM TFPI: 8%
  FXa assay OD, 0.625 nM Ab, 10 nM TFPI: 0.042 OD
  FXa assay OD, 2.5 nM Ab, 10 nM TFPI: 0.083 OD
  FXa assay OD, 10 nM Ab, 10 nM TFPI: 0.765 OD
  FXa assay OD, 40 nM Ab, 10 nM TFPI: 0.804 OD
[5]
  Kd: 0.024 nM
[12]
  FXa assay % of FXa alone, 2.5 nM Ab, 10 nM TFPI: 8.6%
  FXa assay % of FXa alone, 5 nM Ab, 10 nM TFPI: 30.7%
  FXa assay % of FXa alone, 10 nM Ab, 10 nM TFPI: 60.4%
  FXa assay % of FXa alone, 20 nM Ab, 10 nM TFPI: 71.6%
  FXa assay OD, 2.5 nM Ab, 10 nM TFPI: 0.069
  FXa assay OD, 5 nM Ab, 10 nM TFPI: 0.247
  FXa assay OD, 10 nM Ab, 10 nM TFPI: 0.487
  FXa assay OD, 20 nM Ab, 10 nM TFPI: 0.578
[13]
  FXa assay % of FXa alone, 2.5 nM Ab, 10 nM TFPI: 8.5%
  FXa assay % of FXa alone, 5 nM Ab, 10 nM TFPI: 26.5%
  FXa assay % of FXa alone, 10 nM Ab, 10 nM TFPI: 57.9%
  FXa assay % of FXa alone, 20 nM Ab, 10 nM TFPI: 67%
  FXa assay OD, 2.5 nM Ab, 10 nM TFPI: 0.041
  FXa assay OD, 5 nM Ab, 10 nM TFPI: 0.129
  FXa assay OD, 10 nM Ab, 10 nM TFPI: 0.28
  FXa assay OD, 20 nM Ab, 10 nM TFPI: 0.325
[14]
  FXa assay % of FXa alone, 2.5 nM Ab, 10 nM TFPI: 7%
  FXa assay % of FXa alone, 5 nM Ab, 10 nM TFPI: 20.8%
  FXa assay % of FXa alone, 10 nM Ab, 10 nM TFPI: 49.3%
  FXa assay % of FXa alone, 20 nM Ab, 10 nM TFPI: 68.4%
  FXa assay OD, 2.5 nM Ab, 10 nM TFPI: 0.057
  FXa assay OD, 5 nM Ab, 10 nM TFPI: 0.169
  FXa assay OD, 10 nM Ab, 10 nM TFPI: 0.401
  FXa assay OD, 20 nM Ab, 10 nM TFPI: 0.555
